# Experimental data taken from patent US20240261333A1, “NOVEL TARGETS FOR ENHANCING ANTI-TUMOR IMMUNITY” (THE BROAD INSTITUTE, INC., priority 2021, published 2024).
# Columns and labels:
# [1] = molecular target: ARF4 (human) (UniProt P18085); assay: co-IP with anti-FLAG, mass spectrometry; lysate of cells with C-FLAG B3GNT2
# [2] = molecular target: ARHGEF2 (human) (UniProt Q92974); assay: as above
# [3] = molecular target: CCT2 (human) (UniProt P78371); assay: as above
# [4] = molecular target: CCT7 (human) (UniProt Q99832); assay: as above
# Sequence of CCT7 (human) (Q99832 45-543 limits assumed): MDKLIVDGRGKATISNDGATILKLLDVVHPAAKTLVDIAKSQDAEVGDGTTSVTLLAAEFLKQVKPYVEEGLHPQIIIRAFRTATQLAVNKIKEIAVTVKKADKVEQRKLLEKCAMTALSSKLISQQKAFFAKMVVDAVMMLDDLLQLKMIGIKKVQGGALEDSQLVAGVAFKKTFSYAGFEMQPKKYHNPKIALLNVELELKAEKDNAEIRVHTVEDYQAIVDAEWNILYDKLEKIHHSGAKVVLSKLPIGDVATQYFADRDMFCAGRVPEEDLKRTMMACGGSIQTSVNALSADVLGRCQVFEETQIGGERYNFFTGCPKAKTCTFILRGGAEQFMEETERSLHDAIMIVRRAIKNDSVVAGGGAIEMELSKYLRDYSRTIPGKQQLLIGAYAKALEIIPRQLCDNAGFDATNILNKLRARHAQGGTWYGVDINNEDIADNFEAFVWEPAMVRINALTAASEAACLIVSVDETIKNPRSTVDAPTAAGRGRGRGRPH
# [5] = molecular target: CTHRC1 (human) (UniProt Q96CG8); assay: as above
# [6] = molecular target: DNAJB11 (human) (UniProt Q9UBS4); assay: as above
# [7] = molecular target: EIF4A1 (human) (UniProt P60842); assay: as above
# [8] = molecular target: EPRS (human) (UniProt P07814); assay: as above
# [9] = molecular target: GANAB (human) (UniProt Q14697); assay: as above
# [10] = molecular target: GAPDH (human) (UniProt P04406); assay: as above
# Sequence of GAPDH (human) (P04406 2-335 limits assumed): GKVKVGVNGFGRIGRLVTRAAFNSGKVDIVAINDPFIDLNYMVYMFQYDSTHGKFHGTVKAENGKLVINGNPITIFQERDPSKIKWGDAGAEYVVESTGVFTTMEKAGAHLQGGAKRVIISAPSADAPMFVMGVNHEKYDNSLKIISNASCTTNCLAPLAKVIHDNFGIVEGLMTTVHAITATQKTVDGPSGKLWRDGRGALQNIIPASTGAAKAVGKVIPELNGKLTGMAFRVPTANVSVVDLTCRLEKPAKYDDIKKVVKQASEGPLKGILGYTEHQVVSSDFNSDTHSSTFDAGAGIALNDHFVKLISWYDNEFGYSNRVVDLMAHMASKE
# [11] = molecular target: HADHA (human) (UniProt P40939); assay: as above
# Sequence of HADHA (human) (P40939 37-763 limits assumed): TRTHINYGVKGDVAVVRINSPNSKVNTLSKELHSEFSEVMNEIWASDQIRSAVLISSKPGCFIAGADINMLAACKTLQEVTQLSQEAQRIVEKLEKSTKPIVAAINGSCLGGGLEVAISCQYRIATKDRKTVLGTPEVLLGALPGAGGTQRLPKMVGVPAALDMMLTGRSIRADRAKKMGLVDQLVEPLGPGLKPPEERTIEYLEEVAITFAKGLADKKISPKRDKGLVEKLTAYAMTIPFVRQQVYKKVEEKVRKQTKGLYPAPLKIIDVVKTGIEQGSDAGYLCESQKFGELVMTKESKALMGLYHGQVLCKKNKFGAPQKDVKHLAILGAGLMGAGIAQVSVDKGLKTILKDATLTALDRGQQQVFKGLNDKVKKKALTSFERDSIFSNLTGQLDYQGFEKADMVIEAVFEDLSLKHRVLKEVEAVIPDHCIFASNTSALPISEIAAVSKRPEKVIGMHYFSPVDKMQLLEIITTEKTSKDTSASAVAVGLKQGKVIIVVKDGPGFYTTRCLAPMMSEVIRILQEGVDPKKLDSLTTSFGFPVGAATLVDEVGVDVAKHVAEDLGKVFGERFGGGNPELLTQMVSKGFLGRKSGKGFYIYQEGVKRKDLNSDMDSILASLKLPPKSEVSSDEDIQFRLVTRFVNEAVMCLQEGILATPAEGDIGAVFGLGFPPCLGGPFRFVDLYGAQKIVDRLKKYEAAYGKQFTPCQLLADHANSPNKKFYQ
# [12] = molecular target: HSPD1 (human) (UniProt P10809); assay: as above
# [13] = molecular target: ILF3 (human) (UniProt Q12906); assay: as above
# [14] = molecular target: IPO13 (human) (UniProt O94829); assay: as above
# [15] = molecular target: MSN (human) (UniProt P26038); assay: as above
# [16] = molecular target: MYO1C (human) (UniProt O00159); assay: as above
# Sequence of MYO1C (human) (O00159 other isoform, or with tags, fused parts or gaps limits assumed): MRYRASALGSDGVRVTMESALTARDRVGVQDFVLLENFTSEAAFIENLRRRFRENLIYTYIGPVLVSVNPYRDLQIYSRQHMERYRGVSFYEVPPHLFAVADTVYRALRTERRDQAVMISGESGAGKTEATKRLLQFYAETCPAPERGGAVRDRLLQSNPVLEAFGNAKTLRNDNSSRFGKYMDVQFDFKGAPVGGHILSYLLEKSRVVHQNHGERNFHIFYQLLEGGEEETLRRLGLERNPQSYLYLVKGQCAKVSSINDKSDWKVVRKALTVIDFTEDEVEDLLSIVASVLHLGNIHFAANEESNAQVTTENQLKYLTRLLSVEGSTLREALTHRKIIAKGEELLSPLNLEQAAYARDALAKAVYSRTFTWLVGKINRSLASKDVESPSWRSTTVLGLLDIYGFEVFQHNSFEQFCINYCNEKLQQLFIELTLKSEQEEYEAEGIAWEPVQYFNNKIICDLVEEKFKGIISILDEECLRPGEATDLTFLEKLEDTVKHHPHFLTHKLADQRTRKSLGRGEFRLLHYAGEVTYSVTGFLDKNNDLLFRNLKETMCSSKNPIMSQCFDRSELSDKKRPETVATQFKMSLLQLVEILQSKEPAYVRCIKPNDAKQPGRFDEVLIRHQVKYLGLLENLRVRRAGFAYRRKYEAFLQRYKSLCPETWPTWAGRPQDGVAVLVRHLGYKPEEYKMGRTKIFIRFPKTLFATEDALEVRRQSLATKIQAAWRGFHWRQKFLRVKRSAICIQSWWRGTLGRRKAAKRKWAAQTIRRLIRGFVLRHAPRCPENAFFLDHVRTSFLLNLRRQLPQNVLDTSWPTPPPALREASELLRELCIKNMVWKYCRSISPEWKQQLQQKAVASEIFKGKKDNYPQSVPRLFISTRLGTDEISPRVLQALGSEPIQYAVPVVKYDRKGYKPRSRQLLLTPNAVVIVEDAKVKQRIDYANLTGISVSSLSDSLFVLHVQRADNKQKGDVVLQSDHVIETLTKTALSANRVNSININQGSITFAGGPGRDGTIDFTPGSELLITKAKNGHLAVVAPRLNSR
# [17] = molecular target: NPM1 (human) (UniProt P06748); assay: as above
# Sequence of NPM1 (human) (P06748 whole entry): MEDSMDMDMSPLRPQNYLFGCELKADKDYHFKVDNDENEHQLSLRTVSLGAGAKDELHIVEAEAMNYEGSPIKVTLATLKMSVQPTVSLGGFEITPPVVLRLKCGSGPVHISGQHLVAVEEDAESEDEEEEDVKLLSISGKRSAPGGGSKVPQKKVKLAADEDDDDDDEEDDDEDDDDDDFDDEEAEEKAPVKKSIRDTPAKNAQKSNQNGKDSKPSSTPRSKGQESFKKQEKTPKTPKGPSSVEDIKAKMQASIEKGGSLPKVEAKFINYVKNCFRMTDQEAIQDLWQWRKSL
# [18] = molecular target: PIGR (human) (UniProt P01833); assay: as above
# Sequence of PIGR (human) (P01833 19-764 limits assumed): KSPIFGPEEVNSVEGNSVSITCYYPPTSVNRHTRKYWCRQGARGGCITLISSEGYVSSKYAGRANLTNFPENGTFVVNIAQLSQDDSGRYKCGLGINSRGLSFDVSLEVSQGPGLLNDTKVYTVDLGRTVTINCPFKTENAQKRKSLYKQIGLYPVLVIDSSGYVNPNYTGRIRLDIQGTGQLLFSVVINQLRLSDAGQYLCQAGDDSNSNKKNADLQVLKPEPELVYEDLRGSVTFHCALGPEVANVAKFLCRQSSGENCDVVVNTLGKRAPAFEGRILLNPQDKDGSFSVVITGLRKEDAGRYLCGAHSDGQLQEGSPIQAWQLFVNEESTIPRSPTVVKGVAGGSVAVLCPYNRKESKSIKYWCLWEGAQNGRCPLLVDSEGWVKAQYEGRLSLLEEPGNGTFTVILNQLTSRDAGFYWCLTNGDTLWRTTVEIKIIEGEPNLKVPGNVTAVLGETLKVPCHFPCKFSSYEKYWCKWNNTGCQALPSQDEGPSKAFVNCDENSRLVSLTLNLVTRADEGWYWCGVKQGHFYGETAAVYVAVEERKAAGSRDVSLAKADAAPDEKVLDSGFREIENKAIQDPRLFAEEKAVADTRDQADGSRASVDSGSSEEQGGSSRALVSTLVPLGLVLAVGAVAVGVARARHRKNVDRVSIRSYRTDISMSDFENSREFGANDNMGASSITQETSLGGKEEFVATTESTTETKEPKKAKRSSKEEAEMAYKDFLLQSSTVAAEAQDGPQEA
# [19] = molecular target: RARS (human) (UniProt P54136); assay: as above
# [20] = molecular target: RPL26 (human) (UniProt P61254); assay: as above
# [21] = molecular target: RPL32 (human) (UniProt P62910); assay: as above
# [22] = molecular target: RPL9 (human) (UniProt P32969); assay: as above
# [23] = molecular target: RPS27 (human) (UniProt P42677); assay: as above
# [24] = molecular target: RPS4X (human) (UniProt P62701); assay: as above
# [25] = molecular target: RRP12 (human) (UniProt Q5JTH9); assay: as above
# [26] = molecular target: SDF4 (human) (UniProt Q9BRK5); assay: as above
# Sequence of SDF4 (human) (Q9BRK5 37-362 limits assumed): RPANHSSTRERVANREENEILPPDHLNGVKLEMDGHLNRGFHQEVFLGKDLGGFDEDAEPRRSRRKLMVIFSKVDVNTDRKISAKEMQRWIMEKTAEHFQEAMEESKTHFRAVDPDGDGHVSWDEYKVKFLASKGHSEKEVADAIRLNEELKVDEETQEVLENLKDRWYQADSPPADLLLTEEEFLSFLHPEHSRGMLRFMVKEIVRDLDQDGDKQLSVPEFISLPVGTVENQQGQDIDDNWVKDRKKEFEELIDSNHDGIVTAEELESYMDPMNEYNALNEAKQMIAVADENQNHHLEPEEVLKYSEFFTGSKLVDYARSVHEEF
# [27] = molecular target: SLC25A5 (human) (UniProt P05141); assay: as above
# Sequence of SLC25A5 (human) (P05141 2-298 limits assumed): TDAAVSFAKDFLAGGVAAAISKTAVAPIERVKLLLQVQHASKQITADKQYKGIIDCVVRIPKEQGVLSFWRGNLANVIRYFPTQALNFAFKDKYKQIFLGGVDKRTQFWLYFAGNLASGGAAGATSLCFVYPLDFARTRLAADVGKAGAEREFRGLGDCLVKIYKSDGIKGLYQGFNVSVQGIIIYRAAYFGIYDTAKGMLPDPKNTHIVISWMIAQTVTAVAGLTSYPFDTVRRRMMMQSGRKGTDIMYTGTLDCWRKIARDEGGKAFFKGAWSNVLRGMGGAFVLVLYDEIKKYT
# [28] = molecular target: SLC27A4 (human) (UniProt Q6P1M0); assay: as above
# [29] = molecular target: SPRR1A (human) (UniProt P35321); assay: as above
# Sequence of SPRR1A (human) (P35321 whole entry): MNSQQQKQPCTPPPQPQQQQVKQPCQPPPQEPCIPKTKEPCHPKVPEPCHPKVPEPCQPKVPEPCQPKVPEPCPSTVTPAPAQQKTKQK
# [30] = molecular target: STAU2 (human) (UniProt Q9NUL3); assay: as above
# [31] = molecular target: TOR1AIP2 (human) (UniProt Q8NFQ8); assay: as above
# [32] = molecular target: UGGT1 (human) (UniProt Q9NYU2); assay: as above
# [33] = molecular target: ZC3HAV1 (human) (UniProt Q7Z2W4); assay: as above
# [34] = molecular target: HADHA (human) (UniProt P40939); assay: co-IP with control IgG, mass spectrometry; lysate of cells with N-FLAG B3GNT2
# [35] = molecular target: NPM1 (human) (UniProt P06748); assay: as above
# [36] = molecular target: RPL32 (human) (UniProt P62910); assay: as above
# [37] = molecular target: SDF4 (human) (UniProt Q9BRK5); assay: as above
# Sequence of CCT2 (human) (P78371 48-535 limits assumed): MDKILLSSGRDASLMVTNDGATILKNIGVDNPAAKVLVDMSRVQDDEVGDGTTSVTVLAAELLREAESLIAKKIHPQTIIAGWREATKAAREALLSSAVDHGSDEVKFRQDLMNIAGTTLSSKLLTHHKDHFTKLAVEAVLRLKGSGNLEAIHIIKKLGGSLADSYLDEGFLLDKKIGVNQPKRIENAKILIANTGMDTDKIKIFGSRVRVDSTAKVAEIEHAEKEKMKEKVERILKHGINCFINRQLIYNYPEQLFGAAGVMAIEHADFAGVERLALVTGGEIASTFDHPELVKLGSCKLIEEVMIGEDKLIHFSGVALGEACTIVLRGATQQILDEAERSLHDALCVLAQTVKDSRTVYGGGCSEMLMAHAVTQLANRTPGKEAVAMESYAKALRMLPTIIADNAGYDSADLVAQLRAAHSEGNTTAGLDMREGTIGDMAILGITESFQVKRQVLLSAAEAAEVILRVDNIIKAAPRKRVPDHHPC
substance,measurement,setting,value
C-terminal FLAG tagged B3GNT2 (from UniProt Q9NY97 1-397) (enzyme),co-IP mass spectrometry count,[1],4
same,co-IP mass spectrometry count,[2],2
same,co-IP mass spectrometry count,[3],2
same,co-IP mass spectrometry count,[4],2
same,co-IP mass spectrometry count,[5],2
same,co-IP mass spectrometry count,[6],4
same,co-IP mass spectrometry count,[7],6
same,co-IP mass spectrometry count,[8],4
same,co-IP mass spectrometry count,[9],8
same,co-IP mass spectrometry count,[10],16
same,co-IP mass spectrometry count,[11],2
same,co-IP mass spectrometry count,[12],6
same,co-IP mass spectrometry count,[13],5
same,co-IP mass spectrometry count,[14],2
same,co-IP mass spectrometry count,[15],4
same,co-IP mass spectrometry count,[16],3
same,co-IP mass spectrometry count,[17],8
same,co-IP mass spectrometry count,[18],5
same,co-IP mass spectrometry count,[19],2
same,co-IP mass spectrometry count,[20],12
same,co-IP mass spectrometry count,[21],7
same,co-IP mass spectrometry count,[22],7
same,co-IP mass spectrometry count,[23],6
same,co-IP mass spectrometry count,[24],23
same,co-IP mass spectrometry count,[25],2
same,co-IP mass spectrometry count,[26],7
same,co-IP mass spectrometry count,[27],30
same,co-IP mass spectrometry count,[28],2
same,co-IP mass spectrometry count,[29],3
same,co-IP mass spectrometry count,[30],2
same,co-IP mass spectrometry count,[31],2
same,co-IP mass spectrometry count,[32],5
same,co-IP mass spectrometry count,[33],4
IgG control (Millipore Sigma 12-371) (antibody),co-IP mass spectrometry count,[34],0
same,co-IP mass spectrometry count,[35],0
same,co-IP mass spectrometry count,[36],0
same,co-IP mass spectrometry count,[37],0
